Columns and labels:
[1] = target: T1, RquA (Rhodospirillum rubrum, UniProt Q2RPC3); test: intrinsic tryptophan fluorescence titration, one-site fit; also Michaelis-Menten kinetics (apparent Km […] with UQ3 and Mn2+); type: binding
T1 construct: gene Rru_A3227

[2] = target: RquA (TEV-cleaved from MBP-RquA) (R. rubrum); test: SEC; calibrated HiLoad 16/60 Superdex 200; TRIS (20 mM), NaCl (200 mM), TCEP (1 mM), 0.1% Brij-35, pH 8.0; mass estimated from the elution volume
[3] = substrate: COC1=C(OC)C(=O)C(C/C=C(\C)CC/C=C(\C)CCC=C(C)C)=C(C)C1=O; test: LC-MS enzyme assay of conversion to RQ3, Michaelis-Menten kinetics (apparent Km); type: biochemical, Rhodospirillum rubrum; details: Mn2+; SAM (co-substrate)

Molecule: C[S+](CC[C@H](N)C(=O)[O-])C[C@H]1O[C@@H](n2cnc3c(N)ncnc32)[C@H](O)[C@@H]1O (stereo partly drawn) [compound 3, S-adenosyl-L-methionine]
- Kd [1]: 2.22 ± 1.02 mM

Molecule: RquA (TEV-cleaved from MBP-RquA) (enzyme)
- stoichiometry N [2]: 2

B1: RquA (Rhodospirillum rubrum ATCC 11170) (protein)
chain: MTKHQGAVRPVGPEESAFPASQSFSETGPVVADPIKPLPAYLQETYTWAYLDPRNVEWLDHEIVVNAILWGNMTRLMATAFKEFEPGQEVLQPACVYGPFSRHLAERLGPEGYLEVHDVAPVQIHHTRRKVEGLPQVTLRRADAADPLDRDFDGVCCFFLLHEVPDHVKSKIVDNMLSAVRPGGKVVFVDYHRYAALHPLRPIMAFVFRTLEPFAWGLCTREISDFASDAGSFTWRKETYFGGLYQKVVAERRA
notes: MBP-RquA
- Km [3]: 0.155 ± 0.028 µM

Reference: article PMC9814641, “Microbial rhodoquinone biosynthesis proceeds via an atypical RquA-catalyzed amino transfer from S-adenosyl-L-methionine to ubiquinone” (Communications Chemistry, 2022)
